# Measured values: patent US20200087408A1 (ANAPTYSBIO, published 2020)
# What was measured:
# [1] = biological target: T1, extracellular domain of human IL-36R (human, UniProt Q9HB29 20-335); assay: BIACORE T200 SPR, human IL-36R extracellular domain immobilised, antibody injected
# T1 construct: extracellular domain; Immobilised on the chip in the BIACORE assay; soluble and bead-coupled in the KINEXA assay; also called soluble human IL-36R extracellular domain
# T1 sequence (looked up): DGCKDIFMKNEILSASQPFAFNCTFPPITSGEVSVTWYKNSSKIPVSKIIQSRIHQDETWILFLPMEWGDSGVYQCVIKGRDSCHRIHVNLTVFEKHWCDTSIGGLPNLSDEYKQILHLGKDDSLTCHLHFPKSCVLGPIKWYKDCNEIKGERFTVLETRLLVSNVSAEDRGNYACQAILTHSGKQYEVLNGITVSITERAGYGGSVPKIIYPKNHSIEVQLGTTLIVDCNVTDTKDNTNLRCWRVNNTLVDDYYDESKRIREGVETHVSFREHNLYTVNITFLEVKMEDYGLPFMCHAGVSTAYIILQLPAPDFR
# Description: The binding affinities of various purified antibodies comprising immunoglobulin heavy chain (HC) and light chain (LC) polypeptides described herein were evaluated using BIACORE™ T200 […] assays. BIACORE™ T200 evaluation software (GE Healthcare, Buckinghamshire, United Kingdom) is used to determine antibody-antigen binding kinetics and affinity. The extracellular domain of human IL-36R was immobilized at approximately 100 RU onto a CMS sensor chip (GE Healthcare, Waukesha, Wis.) using amine coupling chemistry. HBS-EP+ buffer (0.01 M HEPES, 0.15 M NaCl, 3 mM EDTA, 0.05% Polysorbate, pH 7.6) (Teknova, Hollister, Calif.) was used to reconstitute each antibody at various concentrations Each antibody concentration was then injected for two to three minutes over immobilized antigen at a flow rate of 30 μL/min, and allowed to dissociate for 15 minutes. The surface was regenerated with 60 μL of 3 M MgCl₂ after each cycle. Association and dissociation kinetic constants (kon and koff) were fit globally using a 1:1 binding model with mass transport with the BIACORE™ T200 evaluation software in order to report on- and off-rates (ka and kd, respectively), as well as affinities (KD).
# human IL-36R (on cells) [2] = biological target: T2, human IL-36R (on cells) (human, UniProt Q9HB29 20-575); assay: cell-based or functional assay
# T2 sequence (looked up): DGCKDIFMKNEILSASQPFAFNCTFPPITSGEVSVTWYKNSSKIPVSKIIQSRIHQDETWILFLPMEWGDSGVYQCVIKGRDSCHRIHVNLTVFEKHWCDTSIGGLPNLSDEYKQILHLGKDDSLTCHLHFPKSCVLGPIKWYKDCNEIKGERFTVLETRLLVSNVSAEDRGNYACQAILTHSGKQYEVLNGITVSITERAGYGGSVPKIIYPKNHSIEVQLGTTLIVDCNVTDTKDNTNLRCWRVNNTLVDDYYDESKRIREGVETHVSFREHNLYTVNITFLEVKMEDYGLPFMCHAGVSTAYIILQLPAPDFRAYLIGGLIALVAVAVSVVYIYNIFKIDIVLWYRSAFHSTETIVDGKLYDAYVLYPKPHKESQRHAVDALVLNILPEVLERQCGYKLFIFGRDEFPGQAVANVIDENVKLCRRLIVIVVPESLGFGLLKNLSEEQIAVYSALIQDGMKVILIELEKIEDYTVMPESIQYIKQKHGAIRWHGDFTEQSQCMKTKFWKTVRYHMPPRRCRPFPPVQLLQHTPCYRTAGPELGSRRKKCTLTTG
# [3] = biological target: cynomolgus IL-36R (on cells, allelic variant not stated) (cynomolgus monkey), A0A2K5; assay: cell-based or functional assay
# human IL-36R (on cells) [4] = biological target: T2, human IL-36R (on cells); assay: cell-based or functional assay; remark: listed apart in the source
# human IL-36R (on cells) [5] = biological target: T2, human IL-36R (on cells); assay: cell-based or functional assay; remark: listed apart in the source
# [6] = biological target: T1, extracellular domain of human IL-36R; assay: KINEXA 3000 solution-phase equilibrium, soluble human IL-36R extracellular domain
# Description: The binding affinities of various purified antibodies comprising immunoglobulin heavy chain (HC) and light chain (LC) polypeptides described herein also were evaluated using a KINEXA® 3000 assay (Sapidyne Instruments, Boise, Id.) assays. KINEXA® technology measures the amount of unbound/free antibody molecule in solution phase after incubation with varying concentrations of antigen. Measuring binding events in the solution phase with micro beads for maximized surface area avoids mass transport limitations and mobility effects inherent to methods that measure binding to a solid phase. For each experiment, 50 μg of soluble human or cyno IL-36R extracellular domain was amine-coupled to 50 mg of UltraLink Biosupport beads (Thermo Fisher Scientific, Waltham, Mass.). […] Antibody-antigen solution was then flowed over antigen-coupled beads at a rate of 0.25 mL/min. Free antibody captured by beads was detected using ALEXA FLUOR™ 647-conjugated AffiniPure Donkey Anti-Human IgG (H+L) (Jackson ImmunoResearch, West Grove, Pa.) (500 ng/ml). The KD and/or ABC (active binding concentration) of antibody was obtained from non-linear regression analysis using a one-site homogeneous binding model in the KINEXA™ Pro Software.
# [7] = biological target: cynomolgus monkey IL-36R variant 3 (on cells) (cynomolgus monkey), A0A2K5; assay: cell-based or functional assay
# [8] = biological target: cynomolgus monkey IL-36R variant 2 (on cells) (cynomolgus monkey), A0A2K5; assay: cell-based or functional assay
# Sequence of cynomolgus monkey IL-36R variant 2 (on cells) (cynomolgus monkey), A0A2K5 (chain, as listed by the source mutant): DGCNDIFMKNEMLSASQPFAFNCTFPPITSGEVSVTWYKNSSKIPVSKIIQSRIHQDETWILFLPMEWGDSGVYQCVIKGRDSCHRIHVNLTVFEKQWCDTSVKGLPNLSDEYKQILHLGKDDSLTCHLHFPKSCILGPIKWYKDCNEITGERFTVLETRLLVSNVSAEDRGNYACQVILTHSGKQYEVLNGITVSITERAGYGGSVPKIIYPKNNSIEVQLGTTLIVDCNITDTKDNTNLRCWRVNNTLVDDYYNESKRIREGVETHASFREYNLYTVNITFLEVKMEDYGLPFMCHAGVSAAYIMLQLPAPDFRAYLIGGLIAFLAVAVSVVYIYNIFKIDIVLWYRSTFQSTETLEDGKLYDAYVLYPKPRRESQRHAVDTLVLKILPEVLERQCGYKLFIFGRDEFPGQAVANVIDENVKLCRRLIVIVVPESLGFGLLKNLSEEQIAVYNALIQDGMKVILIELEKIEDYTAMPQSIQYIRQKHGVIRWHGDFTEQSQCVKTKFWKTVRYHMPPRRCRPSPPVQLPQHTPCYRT
# Sequence of cynomolgus IL-36R (on cells, allelic variant not stated) (cynomolgus monkey), A0A2K5 (chain, as listed by the source mutant): as above
# Sequence of cynomolgus monkey IL-36R variant 3 (on cells) (cynomolgus monkey), A0A2K5 (chain, as listed by the source mutant): as above
Binder,"EC50 (nM), HEK human IL-36R IL-8 luciferase reporter assay, 20 ng/ml hIL-36β (human IL-36R (on cells) [2]) [nM]","EC50 (nM), HEK human IL-36R IL-8 luciferase reporter assay, 200 ng/ml hIL-36γ (human IL-36R (on cells) [2]) [nM]","EC50 (nM), HEK cyno IL-36R IL-8 luciferase reporter assay, 300 ng/ml cIL-36γ [3] [nM]","EC50 (nM), IL-8 secretion by primary cynomolgus keratinocytes, 10 ng/ml cyno IL-36β [3] [nM]","EC50 (nM), IL-8 secretion by primary cynomolgus keratinocytes, 50 ng/ml cyno IL-36α [3] [nM]","EC50 (nM), IL-8 secretion by primary cynomolgus keratinocytes, 250 ng/ml cyno IL-36γ [3] [nM]","EC50 (nM), IL-8 secretion by primary human monocytes, human IL-36β (human IL-36R (on cells) [5]) [nM]","EC50 (nM), IL-8 secretion by primary human monocytes, human IL-36γ (human IL-36R (on cells) [5]) [nM]",other results
"Hzd 5D3 (APE6060) (antibody, V domains shown, also called 5D3 Humanized) VH: QVQLVQSGAEVKKPGASVKVSCKASGYTFTNYWMNWVRQAPRQGLEWMGMFHPTGDVTRLNQKFKDRVTMTRDTSTSTVYMELSSLRSEDTAVYYCARTTSMIIGGFAYWGQGTLVTVSS VL: DIVMTQTPLSLSVTPGQPASISCRSSKSLLHRNAITYFYWYLQKPGQPPQLLIYQMSNLASGVPDRFSGSGSGTDFTLKISRVEAEDVGVYYCAQNLELPLTFGGGTKVEIK",0.24,0.35,0.29,1.4,1.4,1,0.9,0.79,"Kd [1]: 0.05 nM; EC50 (nM), HEK human IL-36R IL-8 luciferase reporter assay, 50 ng/ml hIL-36α (human IL-36R (on cells) [2]): 0.23 nM; EC50 (nM), HEK cyno IL-36R IL-8 luciferase reporter assay, 2 µg/ml cIL-36α [3]: 0.067 nM; EC50 (nM), HEK cyno IL-36R IL-8 luciferase reporter assay, 10 µg/ml cIL-36β [3]: 0.17 nM; EC50 (nM), IL-8 secretion by primary cynomolgus PBMCs, 10 ng/ml cyno IL-36β [3]: 1.7 nM; EC50 (nM), IL-8 secretion by primary cynomolgus PBMCs, 50 ng/ml cyno IL-36α [3]: 0.98 nM; EC50 (nM), IL-8 secretion by primary cynomolgus PBMCs, 250 ng/ml cyno IL-36γ [3]: 1.4 nM; EC50 (nM), IL-8 secretion by primary human keratinocytes, 1 ng/ml human IL-36β (human IL-36R (on cells) [4]): 0.217 nM; EC50 (nM), IL-8 secretion by primary human keratinocytes, 10 ng/ml human IL-36α (human IL-36R (on cells) [4]): 0.08 nM; EC50 (nM), IL-8 secretion by primary human keratinocytes, 100 ng/ml human IL-36γ (human IL-36R (on cells) [4]): 0.08 nM; EC50 (nM), IL-8 secretion by primary human monocytes, human IL-36α (human IL-36R (on cells) [5]): 0.081 nM"
"Hzd 5D3 (APE6194) (antibody, V domains shown, also called 5D3 Humanized) VH: QVQLVQSGAEVKKPGASVKVSCKASGYTFTNYWMNWVRQAPRQGLEWMGMFHPYGDVTRLNQKFKDRVTMTRDTSTSTVYMELSSLRSEDTAVYYCARTTSMIIGGFAYWGQGTLVTVSS VL: DIVMTQTPLSLSVTPGQPASISCRSSKSLLHRNAITYFYWYLHKPGQPPQLLIYQMSNLASGVPDRFSGSGSGTDFTLKISRVEAEDVGVYYCAQNLELPLTFGGGTKVEIK",0.3,0.45,0.31,2,1.2,1.2,0.105,0.084,"Kd [1]: 0.022 nM; EC50 (nM), HEK human IL-36R IL-8 luciferase reporter assay, 50 ng/ml hIL-36α (human IL-36R (on cells) [2]): 0.17 nM; EC50 (nM), HEK cyno IL-36R IL-8 luciferase reporter assay, 2 µg/ml cIL-36α [3]: 0.073 nM; EC50 (nM), HEK cyno IL-36R IL-8 luciferase reporter assay, 10 µg/ml cIL-36β [3]: 0.19 nM; EC50 (nM), IL-8 secretion by primary cynomolgus PBMCs, 10 ng/ml cyno IL-36β [3]: 1.6 nM; EC50 (nM), IL-8 secretion by primary cynomolgus PBMCs, 50 ng/ml cyno IL-36α [3]: 1.5 nM; EC50 (nM), IL-8 secretion by primary cynomolgus PBMCs, 250 ng/ml cyno IL-36γ [3]: 1.6 nM; EC50 (nM), IL-8 secretion by primary human keratinocytes, 1 ng/ml human IL-36β (human IL-36R (on cells) [4]): 0.164 nM; EC50 (nM), IL-8 secretion by primary human keratinocytes, 10 ng/ml human IL-36α (human IL-36R (on cells) [4]): 0.105 nM; EC50 (nM), IL-8 secretion by primary human keratinocytes, 100 ng/ml human IL-36γ (human IL-36R (on cells) [4]): 0.083 nM; EC50 (nM), IL-8 secretion by primary human monocytes, human IL-36α (human IL-36R (on cells) [5]): 0.09 nM"
"APE6904 (antibody, V domains shown, also called 18D4 Humanized) VH: DLQFQESGPGLVKPSQTLSLTCTVTGYSITADFAWNWIRQPPGKGLEWIGYISYSGDTNYNPSLKSRVTITRDTSKNQFSLKLSSVTAADTAVYFCAIRGPYSFTYWGQGTLVTVSS VL: DIQMTQSPSSLSASVGDRVTITCRASQWINNYLNWYQQKPGKAPKLLIYYTSMLHSGVPSRFSPSGSGNDYTFTISSLQPEDIATYYCQQGHTLPWTFGGGTKVEIKR",–,–,–,–,–,–,–,–,Kd [6]: 0.027 nM
"Hzd 18D4 (APE5713) (antibody, V domains shown) VH: QVQFQESGPGLVKPSQTLSLTCTVSGYSITSDFAWNWIRQPPGKGLEWIGYISYSGDTNYNPSLKSRVTISRDTSKNQFSLKLSSVTAADTAVYFCAIRGPYSFTYWGQGTLVTVSS VL: DIQMTQSPSSLSASVGDRVTITCRASQDINNYLNWYQQKPGKAPKLLIYYTSRLHSGVPSRFSPSGSGTDYTFTISSLQPEDIATYYCQQGHTLPWTFGGGTKVEIK",–,11,–,–,–,–,–,–,–
"Hzd 18D4 (APE7247) (antibody, V domains shown) VH: DVQFQESGPGLVKPSQTLSLTCTVTGYSITADFAWNWIRQPPGKGLEWIGYISYSGDTNYNPSLKSRVTITRDTSKNQFSLKLSSVTAADTAVYFCAIRGPYSFTYWGQGTLVTVSSA VL: DIQMTQSPSSLSASVGDRVTITCRASQWINNYLNWYQQKPGKAPKLLIYYTSMLHSGVPSRFSPSGSGNDYTFTISSLQPEDIATYYCQQGHTLPWTFGGGTKVEIKRT",–,–,0.24,1.8,2.3,5.6,–,–,"EC50 (nM), IL-8 luciferase reporter assay, 300 ng/ml IL-36γ (Cyno IL-36R variant 3) [7]: 0.42 nM; EC50 (nM), IL-8 luciferase reporter assay, 300 ng/ml IL-36γ (Cyno IL-36R variant 2) [8]: 0.065 nM"
"Chimeric 18D4 (APE3847) (antibody, V domains shown) VH: DVQFQESGPGLVKPSQSLSLTCTVTGYSITSDFAWNWIRQFPGNKLEWMGYISYSGDTNYNPSLKSRISITRDTSKNQFFLQLNSVTTEDTATYFCAIRGPYSFTYWGPGTLVTVSS VL: DIQMTQTTSSLSASLGDRVTINCRASQDINNYLNWYQQKPDGTIRLLIYYTSRLHSGVPSRFSPNGSGTDYSLTINNLEQEDIATYFCQQGHTLPWTFGGGTKLEIK",4.2,3.6,0.51,–,–,–,6,3,–
"Chimeric 1D9 (APE3798) (antibody, V domains shown) VH: QVQLQQSGPELVKPGALVKISCKASGFTFTSYDINWVRQRPGQGLEWIGWIYPGDGSTKYNEKFKGKATLTADKSSSTAYMQLSSLTSENSAVYFCTRSFYTMDYWGQGTSVTVSS VL: DIVMTQAAPSVPVTPGESVSISCRSSKSLLHSNGNTYLYWFLQRPGQSPQLLISRMSNLASGVPDRFSGSGSGTAFTLRISRVEAEDVGVYYCMQHLEYPFTFGSGTKLEIK",0.267,0.093,–,–,–,–,–,–,–
"Chimeric 5D3 (APE3849) (antibody, V domains shown) VH: QVQLQQSGPELVRPGASVRMSCKASDYTFTNYWMHWVKQRPGQGLEWIGMFDPSNSVTRLNQKFKDKATLNVDKSSNTAYIQFSSLTFEDSAVYYCARTTSMIIGGFAYWGQGTLVTVSS VL: DIVMTQAAFSNPVTLGTSASISCRSSKSLLHSNGITYFYWYLQRPGQSPQLLIYQMSNLASGVPDRFSGSGSGTDFTLRISRVEAEDVGIYYCAQNLELPLTFGAGTKLELK",1.3,3.1,–,–,–,–,–,–,–
